Measured values as given in publication PMC10226595 (The Plant Cell, 2023).

Biological target: the molecule itself
Test: single-molecule pull-down

B1: PHB-SDmut, YFP-tagged (PHB with mutated START domain) (natural protein)
chain: MMMVHSMSRDMMNRESPDKGLDSGKYVRYTPEQVEALERVYTECPKPSSLRRQQLIRECPILSNIEPKQIKVWFQNRRCREKQRKEAARLQTVNRKLNAMNKLLMEENDRLQKQVSNLVYENGHMKHQLHTASGTTTDNSCESVVVSGQQHQQQNPNPQHQQRDANNPAGLLSIAEEALAEFLSKATGTAVDWVQMIGMKPGPDSIGIVAISRNCSGIAARACGLVSLEPMKVAEILKDRPSWLRDCRSVDTLSVIPAGNGGTIELIYTQMYAPTTLAAAGAVVGAGYSTCLEDGSYVVCERSLTSATGGPTGPPSSNFVVAAGVPSGFLIRPCDGGGSILHIVDHVDLDAWSVPEVMRPLYESSKILAQKMTVAALRHVRQIAQETSGEVQYGGGRQPAVLRTFSQRLCRGFNDAVNGFVDDGWSPMGSDGAEDVTVMINLSPGKFGGSQYGNSFLPSFGSGVLCAKASMLLQNVPPAVLVRFLREHRSEWADYGVDAYAAASLRASPFAVPCARAGGFPSNQVILPLAQTVEHEESLEVVRLEGHAYSPEDMGLARDMYLLQLCSGVDENVVGGCAQLVFAPIDESFADDAPLLPSGFRIIPLEQKSTPNGASANRTLDLASALEGSTRQAGEADPNGCNFRSVLTIAFQFTFDNHSRDSVASMARQYVRSIVGSIQRVALAIAPRPGSNISPISVPTSPEALTLVRWISRSYSLHTGADLFGSDSQTSGDTLLHQLWNHSDAILCCSLKTNASPVFTFANQTGLDMLETTLVALQDIMLDKTLDEPGRKALCSEFPKIMQQGYAHLPAGVCASSMGRMVSYEQATVWKVLEDDESNHCLAFMFVNWSFV
stoichiometry N: 2

B2: PHB-Delta, YFP-tagged (PHB with the START domain replaced by the 21-nt miR166 recognition site) (natural protein)
chain: MMMVHSMSRDMMNRESPDKGLDSGKYVRYTPEQVEALERVYTECPKPSSLRRQQLIRECPILSNIEPKQIKVWFQNRRCREKQRKEAARLQTVNRKLNAMNKLLMEENDRLQKQVSNLVYENGHMKHQLHTASGTTTDNSCESVVVSGQQHQQQNPNPQHQQRDAGMKPGPDVRQIAQETSGEVQYGGGRQPAVLRTFSQRLCRGFNDAVNGFVDDGWSPMGSDGAEDVTVMINLSPGKFGGSQYGNSFLPSFGSGVLCAKASMLLQNVPPAVLVRFLREHRSEWADYGVDAYAAASLRASPFAVPCARAGGFPSNQVILPLAQTVEHEESLEVVRLEGHAYSPEDMGLARDMYLLQLCSGVDENVVGGCAQLVFAPIDESFADDAPLLPSGFRIIPLEQKSTPNGASANRTLDLASALEGSTRQAGEADPNGCNFRSVLTIAFQFTFDNHSRDSVASMARQYVRSIVGSIQRVALAIAPRPGSNISPISVPTSPEALTLVRWISRSYSLHTGADLFGSDSQTSGDTLLHQLWNHSDAILCCSLKTNASPVFTFANQTGLDMLETTLVALQDIMLDKTLDEPGRKALCSEFPKIMQQGYAHLPAGVCASSMGRMVSYEQATVWKVLEDDESNHCLAFMFVNWSFV
stoichiometry N: 2
